The record followed here is patent US20170166621A1.

This assay has as its target GLP-1 receptor (UniProt P43220). Kind of assay: cell-based or functional assay.

Chain of GLP-1 receptor (P43220 24-463 limits assumed): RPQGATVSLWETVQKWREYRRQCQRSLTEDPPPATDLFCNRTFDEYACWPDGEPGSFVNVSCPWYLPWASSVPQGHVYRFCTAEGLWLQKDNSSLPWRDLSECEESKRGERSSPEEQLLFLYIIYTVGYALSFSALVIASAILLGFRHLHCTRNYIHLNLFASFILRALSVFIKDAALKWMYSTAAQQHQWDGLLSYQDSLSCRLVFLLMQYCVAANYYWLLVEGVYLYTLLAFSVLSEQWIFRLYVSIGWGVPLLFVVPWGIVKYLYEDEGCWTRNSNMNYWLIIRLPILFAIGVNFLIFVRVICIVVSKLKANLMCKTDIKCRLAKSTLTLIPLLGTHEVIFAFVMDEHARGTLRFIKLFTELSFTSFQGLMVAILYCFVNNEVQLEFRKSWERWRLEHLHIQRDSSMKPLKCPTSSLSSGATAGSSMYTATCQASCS

Exendin-4 (peptide): the cAMP EC50 (fold-Ex-4); GLP-1R only cells was 1 fold, the cAMP EC50 (fold-Ex-4); GLP-1R/FGFR1c/beta-klotho cells was 1 fold, the cAMP EC50 (nM); GLP-1R only cells was 11 nM and the cAMP EC50 (nM); GLP-1R/FGFR1c/beta-klotho cells is 6 nM. The substance further displayed a cAMP y-max (% Ex-4); GLP-1R only cells of 100% and a cAMP y-max (% Ex-4); GLP-1R/FGFR1c/beta-klotho cells of 100%.
